B1: mouse Bcl-xLΔC24 (domain or fragment)
chain: MSQSNRELVVDFLSYKLSQKGYSWSQFSDVEENRTEAPEETEAERETPSAINGNPSWHLADSPAVNGATGHSSSLDAREVIPMAAVKQALREAGDEFELRYRRAFSDLTSQLHITPGTAYQSFEQVVNELFRDGVNWGRIVAFFSFGGALCVESVDKEMQVLVSRIASWMATYLNDHLEPWIQENGGWDTFVDLYGNNAAAESRKGQER
B2: loop-deleted human BCL-XL (Δ27–82, ΔC24) (domain or fragment)
chain: MSQSNRELVVDFLSYKLSQKGYSWSQMAAVKQALREAGDEFELRYRRAFSDLTSQLHITPGTAYQSFEQVVNELFRDGVNWGRIVAFFSFGGALCVESVDKEMQVLVSRIAAWMATYLNDHLEPWIQENGGWDTFVELYGNNAAAESRKGQER

Columns and labels:
[1] = biological target: B2; experiment: crystal structure
mouse Bcl-xLΔC24 = biological target: B1; experiment: SPR
mouse Bcl-xL Y101FΔC24 = mouse Bcl-xL Y101FΔC24 (mouse, UniProt Q64373-1 1-209, Y101F)
[2] = biological target: mouse Bcl-xL Y101F/Q111AΔC24 (mouse, UniProt Q64373-1 1-209, Y101F | Q111A)
human BCL-XLΔC24 = human BCL-XLΔC24 (human, UniProt Q07817-1 1-209); experiment: ELISA
[3] = biological target: BIM BH3 synthetic peptide; experiment: SPR
crystal structure = biological target: the molecule itself; experiment: crystal structure

LPLEPNSILGQVGRLLALIGDDINRRYDTEFQNL [mBak Q75L BH3 synthetic peptide]
binding result [1]: binds
fold weaker binding than wild-type Bak BH3 (mouse Bcl-xLΔC24): ~7 fold

LPLEPNSILGQVGRQLALIGDDINRRYDTEFQNL [mBak BH3 synthetic peptide]
fold weaker binding than wild-type Bcl-xL (mouse Bcl-xL Y101FΔC24): ~3.5 fold
fold weaker binding than wild-type Bcl-xL [2]: ~3.5 fold

PSSTMGQVGRQLAIIEDDINRRYDSE [phage-displayed human BAK BH3 peptide G82E]
IC50 (human BCL-XLΔC24): > 10 µM

PSSTMGQVGRALAIIGDDINRRYDSE [phage-displayed human BAK BH3 peptide Q77A]
fold reduction in binding against wild-type BAK BH3 (from IC50) (human BCL-XLΔC24): 8 fold

PSSTMGQVGAQLAIIGDDINRRYDSE [phage-displayed human BAK BH3 peptide R76A]
fold reduction in binding against wild-type BAK BH3 (from IC50) (human BCL-XLΔC24): 4 fold

B1
binding result [3]: binds

LPLQPSSTMGQVGRQLAIIGDDINRRYDSEFQTM [hBAK BH3 synthetic peptide]
binding result [1]: binds

B2
binding result (crystal structure): binds

From paper PMC4888843 (Genes & Development, 2016)
